Assay results: patent US20240317894A1 (BOARD OF REGENTS OF THE UNIVERSITY OF OKLAHOMA, published 2024)

Molecular target: T1, Fms-related tyrosine kinase 3 (FLT3) on FLT3-expressing target cells (human, UniProt P36888 27-993)
T1 sequence (looked up): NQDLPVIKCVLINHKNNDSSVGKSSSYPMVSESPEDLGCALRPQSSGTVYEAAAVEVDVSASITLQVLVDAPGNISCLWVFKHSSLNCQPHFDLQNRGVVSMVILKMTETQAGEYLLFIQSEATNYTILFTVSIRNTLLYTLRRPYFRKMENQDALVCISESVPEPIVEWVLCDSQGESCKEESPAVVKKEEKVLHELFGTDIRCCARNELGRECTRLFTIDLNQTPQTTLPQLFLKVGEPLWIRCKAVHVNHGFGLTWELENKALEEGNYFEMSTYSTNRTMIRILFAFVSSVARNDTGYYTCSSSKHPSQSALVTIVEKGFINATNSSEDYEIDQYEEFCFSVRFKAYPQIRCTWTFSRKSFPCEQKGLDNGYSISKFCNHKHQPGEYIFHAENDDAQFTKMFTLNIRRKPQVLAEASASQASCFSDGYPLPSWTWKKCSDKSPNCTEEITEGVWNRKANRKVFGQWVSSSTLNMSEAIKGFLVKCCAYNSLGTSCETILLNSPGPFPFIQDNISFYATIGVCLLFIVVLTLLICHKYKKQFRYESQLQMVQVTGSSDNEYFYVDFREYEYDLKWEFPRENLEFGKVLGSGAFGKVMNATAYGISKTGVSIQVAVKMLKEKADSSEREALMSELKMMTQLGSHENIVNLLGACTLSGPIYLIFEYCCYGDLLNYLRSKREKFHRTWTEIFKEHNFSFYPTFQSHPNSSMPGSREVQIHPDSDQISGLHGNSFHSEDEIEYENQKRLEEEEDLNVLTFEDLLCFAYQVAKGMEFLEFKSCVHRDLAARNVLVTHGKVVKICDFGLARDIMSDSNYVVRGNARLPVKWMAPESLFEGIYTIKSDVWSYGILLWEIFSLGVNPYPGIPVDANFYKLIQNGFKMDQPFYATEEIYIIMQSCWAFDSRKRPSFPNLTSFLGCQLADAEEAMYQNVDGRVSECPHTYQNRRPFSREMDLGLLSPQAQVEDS
Assay: cell-based or functional assay

- IL-2 expression (quantitative RT-PCR): > 5 fold
B1: FLCAR (chimeric antigen receptor with an FLT3-binding extracellular portion of human FLT3 ligand, CD28 transmembrane and costimulatory regions and a CD3-zeta … (other)
chain: TQDCSFQHSPISSDFAVKIRELSDYLLQDYPVTVASNLQDEELCGGLWRLVLAQRWMERLKTVAGSKMQGLLERVNTEIHFVTKCAFQPPPSCLRFVQTNISRLLQETSEQLVALKPWITRQNFSRCLELQCQGKHLCPSPLFPGPSKPFWVLVVVGGVLACYSLLVTVAFIIFWVRSKRSRLLHSDYMNMTPRRPGPTRKHYQPYAPPRDFAAYRSGSRSADAPAYQQGQNQLYNELNLGRREEYDVLDKRRGRDPEMGGKPRRKNPQEGLYNELQKDKMAEAYSEIGMKGERRRGKGHDGLYQGLSTATKDTYDALHMQALPPR
modifications: partially phosphorylated on tyrosine
